# In publication PMC9728176:
# Molecular target: T1, His6-Fur (Escherichia coli) (UniProt P0A9A9)
# T1 sequence: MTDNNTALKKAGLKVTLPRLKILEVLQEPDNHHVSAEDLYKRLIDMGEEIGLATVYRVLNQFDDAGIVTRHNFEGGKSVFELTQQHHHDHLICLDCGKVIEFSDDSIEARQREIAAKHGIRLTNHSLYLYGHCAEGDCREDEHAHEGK
# Assay: EMSA
# Conditions: EMSA: 10 mM Tris-HCl pH 7.5, 50 mM KCl, 0.5 mM DTT, 0.05 mg/ml BSA, 4% glycerin, 1 mM MgCl2, 0.1 mM MnCl2, 50 ug/ml poly(dI-dC), 10 ng probe, temperature not …
sequence,measurement,value
GCGATATCACCGGTATAAGGGGCCAGCAGTTCCGCAGGGTCGAACTCTGCCAGATCTGCCAGCGCAACGAAGTTTTGCACCACCTGAATATCGCCCTGCACTTCCAGCTCACCACTGCGAATCAGTGCGGTAAGCTGCTGGCGATCGCGAAGTTTCGGCAACACACTGGCGTAGGCGATAACGGTGCA (double strand) [Biotin-PesrE (Biotin-S1V3)],binding,binds
